The results in this text go back to PMC3433420, “Comprehensive Binary Interaction Mapping of SH2 Domains via Fluorescence Polarization Reveals Novel Functional Diversification of ErbB Receptors” (PLoS ONE, 2012).

Usually Kd stands for a measure of binding affinity in units of concentration. Higher therefore signals lower affinity.

Several values for one entry are separate records, joined by “and”; a condition that tells them apart may be missing. Equal entries are not always repeated. Non-standard residues stand in square brackets, D forms with d. No end group written: not given here. pY = N[C@@H](Cc1ccc(OP(=O)(O)O)cc1)C(=O)O; Rhodamine = not defined here

Holding throughout (assay): peptide or protein array; SH2/PTB proteins spotted on aldehyde slides, rhodamine peptide titrated in buffer B (20 mM HEPES, 100 mM KCl, 0.1% Tween-20, 5 mM DTT, pH 7.8), 1 h at room temperature; replicate assays
Common to all, as to details: both partners purified

Experiment [1] addresses T1, PTPN11 tandem SH2 domains (human).
T1 construct: PTPN11, human; also called PTPN11-NC; source: bacterial expression, purified
T1 sequence (Q06124 whole entry, looked up): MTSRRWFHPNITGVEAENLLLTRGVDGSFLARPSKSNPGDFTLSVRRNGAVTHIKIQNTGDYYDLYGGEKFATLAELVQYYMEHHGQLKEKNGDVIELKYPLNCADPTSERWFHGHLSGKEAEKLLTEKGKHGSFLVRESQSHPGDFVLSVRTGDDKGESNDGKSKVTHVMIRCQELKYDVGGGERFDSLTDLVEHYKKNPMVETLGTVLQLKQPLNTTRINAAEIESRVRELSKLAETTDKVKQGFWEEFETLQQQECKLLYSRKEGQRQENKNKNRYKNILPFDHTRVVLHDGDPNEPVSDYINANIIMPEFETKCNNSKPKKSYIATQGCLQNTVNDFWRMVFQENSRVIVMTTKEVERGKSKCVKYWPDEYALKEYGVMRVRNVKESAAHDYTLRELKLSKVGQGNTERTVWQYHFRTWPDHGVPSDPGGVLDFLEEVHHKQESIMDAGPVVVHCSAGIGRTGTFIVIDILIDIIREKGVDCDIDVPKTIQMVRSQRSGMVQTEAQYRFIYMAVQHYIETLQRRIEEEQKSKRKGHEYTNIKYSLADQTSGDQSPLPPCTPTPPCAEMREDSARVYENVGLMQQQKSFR

Another experiment concerns the target T2, SOCS6 SH2 domain (human, UniProt O14544 384-491).
T2 construct: SOCS6, human; source: bacterial expression, purified
T2 sequence (looked up): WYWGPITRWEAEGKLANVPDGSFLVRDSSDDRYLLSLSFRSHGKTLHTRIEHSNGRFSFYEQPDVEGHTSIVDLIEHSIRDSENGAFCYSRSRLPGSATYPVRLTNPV

For the next experiment, the target named is T3, BLNK SH2 domain (human, UniProt Q8WV28 346-453).
T3 construct: BLNK, human; source: bacterial expression, purified
T3 sequence (looked up): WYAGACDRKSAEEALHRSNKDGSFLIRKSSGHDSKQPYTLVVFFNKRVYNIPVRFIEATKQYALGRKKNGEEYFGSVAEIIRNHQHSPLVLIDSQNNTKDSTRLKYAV

The target of the next experiment is T4, PLCG2 tandem SH2 domains (human).
T4 construct: PLCG2, human; also called PLCG2-NC; source: bacterial expression, purified
T4 sequence (P16885 whole entry, looked up): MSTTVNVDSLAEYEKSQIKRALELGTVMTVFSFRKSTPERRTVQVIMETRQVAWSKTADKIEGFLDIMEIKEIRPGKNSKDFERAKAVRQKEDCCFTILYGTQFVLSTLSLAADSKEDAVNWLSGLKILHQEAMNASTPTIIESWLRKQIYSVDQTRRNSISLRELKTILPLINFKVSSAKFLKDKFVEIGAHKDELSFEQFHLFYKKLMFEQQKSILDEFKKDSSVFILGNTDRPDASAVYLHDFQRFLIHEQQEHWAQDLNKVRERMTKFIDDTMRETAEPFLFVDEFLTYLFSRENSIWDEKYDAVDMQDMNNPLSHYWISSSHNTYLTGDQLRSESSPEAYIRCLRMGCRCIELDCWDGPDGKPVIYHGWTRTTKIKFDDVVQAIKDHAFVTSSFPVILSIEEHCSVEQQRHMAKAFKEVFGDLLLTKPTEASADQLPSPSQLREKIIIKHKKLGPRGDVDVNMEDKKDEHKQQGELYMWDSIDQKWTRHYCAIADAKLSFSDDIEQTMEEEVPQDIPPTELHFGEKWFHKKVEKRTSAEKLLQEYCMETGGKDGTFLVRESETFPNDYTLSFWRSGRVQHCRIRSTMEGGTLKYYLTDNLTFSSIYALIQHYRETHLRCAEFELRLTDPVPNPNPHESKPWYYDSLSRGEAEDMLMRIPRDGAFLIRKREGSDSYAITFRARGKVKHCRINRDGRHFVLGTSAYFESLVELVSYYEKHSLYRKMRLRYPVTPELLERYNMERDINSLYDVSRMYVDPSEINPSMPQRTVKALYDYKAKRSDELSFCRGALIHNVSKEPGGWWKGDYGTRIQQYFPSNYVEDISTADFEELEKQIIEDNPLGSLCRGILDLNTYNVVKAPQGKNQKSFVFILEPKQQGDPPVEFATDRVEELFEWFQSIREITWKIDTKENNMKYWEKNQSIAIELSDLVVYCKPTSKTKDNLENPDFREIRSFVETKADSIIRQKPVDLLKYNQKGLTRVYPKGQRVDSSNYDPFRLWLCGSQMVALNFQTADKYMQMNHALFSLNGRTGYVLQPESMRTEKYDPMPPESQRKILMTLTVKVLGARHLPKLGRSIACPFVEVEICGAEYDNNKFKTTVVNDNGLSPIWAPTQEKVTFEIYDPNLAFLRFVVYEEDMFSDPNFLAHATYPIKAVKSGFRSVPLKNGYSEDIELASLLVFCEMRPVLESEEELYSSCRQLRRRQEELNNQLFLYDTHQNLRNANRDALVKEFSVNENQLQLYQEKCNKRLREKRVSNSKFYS

A further experiment addresses T5, DAPP1 SH2 domain (human, UniProt Q9UN19 35-129).
T5 construct: DAPP1, human; source: bacterial expression, purified
T5 sequence (looked up): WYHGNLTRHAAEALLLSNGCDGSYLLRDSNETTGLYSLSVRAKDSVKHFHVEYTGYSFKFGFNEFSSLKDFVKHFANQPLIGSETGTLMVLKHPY

Regarding Rhodamine-ETDG[pY]VAPLTCSD (reading uncertain) [ErbB2 pY1127 phosphopeptide, rhodamine-labelled, for protein microarrays], the equilibrium dissociation constant (Kd) was 1150 nM and 1530 nM in experiment [1]; 8930 nM and 5200 nM with SOCS6 SH2 domain; 1950 nM and 1250 nM with BLNK SH2 domain; 578 nM and 1600 nM with PLCG2 tandem SH2 domains; 2670 nM with DAPP1 SH2 domain.
